B1: TPR t1 (parent)
chain: GACCAAUCUGCCCUCAGAGCUCGAGAACAUCUUCGGAUGCAGAGGAGGCAGGCUUCGGUGGCGCGAUAGCGCCAACGUCCUCAACCUCCAAUGCAUCCCACCACAUGAUGAUGCCUGAAGAGCCUUGGUUUUUUG

Variants of: B1
Assay: polymerase ribozyme fitness, log enrichment relative to wild type (log ratio); higher = more active; in vitro selection for triplet polymerase activity
How it was run: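 One round of in vitro selection, in triplicate, was applied to PCR-built, transcribed mutant libraries of each subunit of a heterodimeric triplet polymerase ribozyme. The steps were annealing with a biotinylated primer, partner subunit and triplets, incubation frozen at −7 °C, gel excision of extended constructs, streptavidin-bead capture and RT-PCR. Fitness is the logarithm, base 2, of genotype enrichment over wild-type enrichment from inverse-variance-weighted replicate averages of Illumina-sequenced inputs and outputs, keeping genotypes with ≥10 input reads and ≥1 read per output.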
With C8U G10C C13A C34A C40U C98G A103C the “polymerase ribozyme fitness (log ratio)” value was -3.92. With C8U G17C G36C the “polymerase ribozyme fitness (log ratio)” value was -4.86. With C8U G23C C34U G61A G93A U109C the “polymerase ribozyme fitness (log ratio)” value was -6.59. With C8U G35A the “polymerase ribozyme fitness (log ratio)” value was -3.11. With C8U G36U C56U C82A C89G the “polymerase ribozyme fitness (log ratio)” value was -2.15. With C8U G36U G39A G48U C72A U106A the “polymerase ribozyme fitness (log ratio)” value was -1.69. In the case of C8U G39A C40A C62U G93U A111C, the “polymerase ribozyme fitness (log ratio)” value is reported as -0.367. For C8U G39U A66G G113C, the “polymerase ribozyme fitness (log ratio)” value was -4.22. In the case of C8U G44A G60A A121C G122U, the “polymerase ribozyme fitness (log ratio)” value is reported as -1.04. With C8U G44C A83U the “polymerase ribozyme fitness (log ratio)” value was -0.336. In the case of C8U G44U G52A G63C A84U C85A, the “polymerase ribozyme fitness (log ratio)” value is reported as -6.83. In the case of C8U G45A, the “polymerase ribozyme fitness (log ratio)” value is reported as 0.126. For C8U G47C G57A U92C, the “polymerase ribozyme fitness (log ratio)” value was -4.38. With C8U G47C G77C U129G the “polymerase ribozyme fitness (log ratio)” value was -3.36. In the case of C8U G48A C72U, the “polymerase ribozyme fitness (log ratio)” value is reported as 0.0222. For C8U G51U, the “polymerase ribozyme fitness (log ratio)” value was -2.45. With C8U G52A A68G U81A G120U the “polymerase ribozyme fitness (log ratio)” value was -4.33. With C8U G52U A105G the “polymerase ribozyme fitness (log ratio)” value was -3.89. For C8U G57U U78A C104A, the “polymerase ribozyme fitness (log ratio)” value was -1.43. In the case of C8U G60U U106A G122A, the “polymerase ribozyme fitness (log ratio)” value is reported as 0.855. For C8U G61A A84C, the “polymerase ribozyme fitness (log ratio)” value was 0.393. In the case of C8U G61A C70U U87G C89G, the “polymerase ribozyme fitness (log ratio)” value is reported as -5.05. With C8U G61A C99U the “polymerase ribozyme fitness (log ratio)” value was -2.24. With C8U G61U A66U C123A U133G the “polymerase ribozyme fitness (log ratio)” value was 0.747. In the case of C8U G61U C70G, the “polymerase ribozyme fitness (log ratio)” value is reported as -4.76. In the case of C8U G63C C102U, the “polymerase ribozyme fitness (log ratio)” value is reported as -2.5. In the case of C8U G69A, the “polymerase ribozyme fitness (log ratio)” value is reported as -1.72. With C8U G69U the “polymerase ribozyme fitness (log ratio)” value was 0.891. With C8U G69U G93C the “polymerase ribozyme fitness (log ratio)” value was 0.148. In the case of C8U G71A C88U, the “polymerase ribozyme fitness (log ratio)” value is reported as -0.224. In the case of C8U G93A G110U G127C, the “polymerase ribozyme fitness (log ratio)” value is reported as -2.37. For C8U G117U, the “polymerase ribozyme fitness (log ratio)” value was -1.38. With C8U U14A A41C C64U G93U C115U U125G U132A U133G the “polymerase ribozyme fitness (log ratio)” value was -6.39. In the case of C8U U14A A46U C56U, the “polymerase ribozyme fitness (log ratio)” value is reported as -1.92. In the case of C8U U14A G61U C70U C104U C124A G135C, the “polymerase ribozyme fitness (log ratio)” value is reported as 0.783. For C8U U14G G45A G69A, the “polymerase ribozyme fitness (log ratio)” value was -2.72. With C8U U21A G69C U106C U112A the “polymerase ribozyme fitness (log ratio)” value was -0.365. With C8U U32A G60C C97A C99A G122U the “polymerase ribozyme fitness (log ratio)” value was -5.09. In the case of C8U U55C C64G U112A, the “polymerase ribozyme fitness (log ratio)” value is reported as -6.22. For C8U U59G, the “polymerase ribozyme fitness (log ratio)” value was 0.21. For C8U U59G A75U U81G C124U, the “polymerase ribozyme fitness (log ratio)” value was -2.31. For C8U U59G U96A G110U, the “polymerase ribozyme fitness (log ratio)” value was -2.31. In the case of C8U U78A G93U C101G C104A C124U, the “polymerase ribozyme fitness (log ratio)” value is reported as -3.7. With C8U U78C U92G C115A A119U the “polymerase ribozyme fitness (log ratio)” value was -0.985. For C8U U87A U112C G117U U130C, the “polymerase ribozyme fitness (log ratio)” value was -0.73. For C8U U87C C102U U112A G122A, the “polymerase ribozyme fitness (log ratio)” value was -0.31. For C8U U92A G93A, the “polymerase ribozyme fitness (log ratio)” value was -4.46. For C8U U92C, the “polymerase ribozyme fitness (log ratio)” value was -0.788. With U9A A16U C64U C73U the “polymerase ribozyme fitness (log ratio)” value was 0.678. In the case of U9A A16U C89U, the “polymerase ribozyme fitness (log ratio)” value is reported as -0.38. In the case of U9A A16U G63C U132A, the “polymerase ribozyme fitness (log ratio)” value is reported as -0.608. With U9A A24G G42A G52C C72A the “polymerase ribozyme fitness (log ratio)” value was -3.17. In the case of U9A A26G A50U, the “polymerase ribozyme fitness (log ratio)” value is reported as -1.68. With U9A A26G G47A C49U C82G G107U the “polymerase ribozyme fitness (log ratio)” value was -6.22. In the case of U9A A37C G63A, the “polymerase ribozyme fitness (log ratio)” value is reported as -0.704. With U9A A43C C82G A108G C123G U131A the “polymerase ribozyme fitness (log ratio)” value was -5.6. With U9A A50C the “polymerase ribozyme fitness (log ratio)” value was 0.19. With U9A A84U U92A U116G U132C the “polymerase ribozyme fitness (log ratio)” value was -4.07. With U9A A103G the “polymerase ribozyme fitness (log ratio)” value was -3.9. For U9A A108U C123G, the “polymerase ribozyme fitness (log ratio)” value was -4.11. For U9A C11A C56A A95G U106A C123U, the “polymerase ribozyme fitness (log ratio)” value was 1.46. For U9A C11A G42U C64U, the “polymerase ribozyme fitness (log ratio)” value was -1.3. With U9A C11G G93U A100G the “polymerase ribozyme fitness (log ratio)” value was -5.7. With U9A C11U G52A the “polymerase ribozyme fitness (log ratio)” value was -0.401. For U9A C12U A27C C53U G63A A83C, the “polymerase ribozyme fitness (log ratio)” value was -4.89. With U9A C13A G42C A43U A100U the “polymerase ribozyme fitness (log ratio)” value was -3.76. With U9A C13A G51U C94G the “polymerase ribozyme fitness (log ratio)” value was -4.04. In the case of U9A C13G A37G C82G U116C U125A, the “polymerase ribozyme fitness (log ratio)” value is reported as -4.1. For U9A C13U G19U U78A A91G, the “polymerase ribozyme fitness (log ratio)” value was -3.32. In the case of U9A C15A A37G C56U G65A C79G C86G C115A, the “polymerase ribozyme fitness (log ratio)” value is reported as -7.1. For U9A C15A G39U C49A C56U A121U, the “polymerase ribozyme fitness (log ratio)” value was 0.6. For U9A C15U A41U G60U U92C C123A, the “polymerase ribozyme fitness (log ratio)” value was -0.568. With U9A C20U A43U A50C U87A the “polymerase ribozyme fitness (log ratio)” value was -1.81. With U9A C20U G71U A91C G107A G117A the “polymerase ribozyme fitness (log ratio)” value was -6.01. In the case of U9A C22A, the “polymerase ribozyme fitness (log ratio)” value is reported as -4.76. In the case of U9A C22G G51A C56G C123A, the “polymerase ribozyme fitness (log ratio)” value is reported as -3.28. With U9A C22U C49A C86A the “polymerase ribozyme fitness (log ratio)” value was -5.1. With U9A C31G C73G C85A U109C the “polymerase ribozyme fitness (log ratio)” value was -5.57. With U9A C31U A111C G135U the “polymerase ribozyme fitness (log ratio)” value was -4.56. For U9A C31U G44U G52U A111U, the “polymerase ribozyme fitness (log ratio)” value was -5.37. For U9A C40U A46U C56U C115G U131G, the “polymerase ribozyme fitness (log ratio)” value was -1.77. For U9A C49A C56U C73A, the “polymerase ribozyme fitness (log ratio)” value was -0.459. In the case of U9A C56A A66U, the “polymerase ribozyme fitness (log ratio)” value is reported as -0.548. For U9A C56A G77U G117U, the “polymerase ribozyme fitness (log ratio)” value was 0.546.

— the RNAGym collection of RNA variant scans (doi:10.1073/pnas.2313332121)
